From patent US20240117334A1, “FACTOR B PROTEASES” (Vertex Pharmaceuticals Incorporated, priority 2021, published 2024)

What follows are binders tested against Human Factor B (human) (UniProt P00751) (assay: cell-based or functional assay).
Sequence of Human Factor B (human) (P00751 26-764 limits assumed): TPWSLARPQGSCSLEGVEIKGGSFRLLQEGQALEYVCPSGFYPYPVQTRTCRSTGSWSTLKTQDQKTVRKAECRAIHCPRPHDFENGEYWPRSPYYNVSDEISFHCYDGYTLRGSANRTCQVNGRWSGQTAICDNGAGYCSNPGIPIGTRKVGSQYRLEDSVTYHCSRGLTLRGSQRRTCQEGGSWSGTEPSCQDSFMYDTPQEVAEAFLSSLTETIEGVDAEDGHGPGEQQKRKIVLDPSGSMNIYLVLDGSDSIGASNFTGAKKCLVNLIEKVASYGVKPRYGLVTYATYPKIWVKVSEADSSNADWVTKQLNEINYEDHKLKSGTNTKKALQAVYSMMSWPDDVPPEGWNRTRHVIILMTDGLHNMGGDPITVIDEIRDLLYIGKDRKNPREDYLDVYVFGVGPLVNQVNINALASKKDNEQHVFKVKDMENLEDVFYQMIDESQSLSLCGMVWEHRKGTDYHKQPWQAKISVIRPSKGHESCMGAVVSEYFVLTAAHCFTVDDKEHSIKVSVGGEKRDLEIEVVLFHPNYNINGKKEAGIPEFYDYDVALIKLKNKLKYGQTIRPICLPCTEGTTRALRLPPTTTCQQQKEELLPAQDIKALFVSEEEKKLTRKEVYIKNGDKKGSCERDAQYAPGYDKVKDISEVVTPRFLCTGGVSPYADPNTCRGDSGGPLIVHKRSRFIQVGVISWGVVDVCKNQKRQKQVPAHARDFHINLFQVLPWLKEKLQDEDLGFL

Row | fB Cleavage EC50 [nM] | Binder
1 | 103 | chymase C22S/P38Q/K40M/F41R/L99Y/V138I/F173Y/D175S/A190S/V213A/S218V/A226R (enzyme) IIGGTESKPHSRPYMAYLEIVTSNGQSMRCGGFLIRRNFVLTAAHCAGRSITVTLGAHNITEEEDTWQKLEVIKQFRHPKYNTSTYHHDIMLLKLKEKASLTLAVGTLPFPSQFNFVPPGRMCRIAGWGRTGVLKPGSDTLQEVKLRLMDPQACSHYRSFDHNLQLCVGNPRKTKSSFKGDSGGPLLCAGVAQGIASYGRVDAKPPRVFTRISHYRPWINQILQAN
2 | 870 | chymase C22S/P38Q/K40M/F41R/L99F/V138I/F173L/D175N/A190S/V213A/A226R (enzyme) IIGGTESKPHSRPYMAYLEIVTSNGQSMRCGGFLIRRNFVLTAAHCAGRSITVTLGAHNITEEEDTWQKLEVIKQFRHPKYNTSTFHHDIMLLKLKEKASLTLAVGTLPFPSQFNFVPPGRMCRIAGWGRTGVLKPGSDTLQEVKLRLMDPQACSHLRNFDHNLQLCVGNPRKTKSSFKGDSGGPLLCAGVAQGIASYGRSDAKPPRVFTRISHYRPWINQILQAN
3 | 482 | chymase C22S/P38Q/K40M/F41R/V138I/F173L/D175N/A190S/V213A/S218L/A226R (enzyme) IIGGTESKPHSRPYMAYLEIVTSNGQSMRCGGFLIRRNFVLTAAHCAGRSITVTLGAHNITEEEDTWQKLEVIKQFRHPKYNTSTLHHDIMLLKLKEKASLTLAVGTLPFPSQFNFVPPGRMCRIAGWGRTGVLKPGSDTLQEVKLRLMDPQACSHLRNFDHNLQLCVGNPRKTKSSFKGDSGGPLLCAGVAQGIASYGRLDAKPPRVFTRISHYRPWINQILQAN
4 | 724 | chymase C22S/P38Q/K40M/F41R/L99Q/V138I/F173Y/D175A/A190S/V213A/S218T/A226R (enzyme) IIGGTESKPHSRPYMAYLEIVTSNGQSMRCGGFLIRRNFVLTAAHCAGRSITVTLGAHNITEEEDTWQKLEVIKQFRHPKYNTSTQHHDIMLLKLKEKASLTLAVGTLPFPSQFNFVPPGRMCRIAGWGRTGVLKPGSDTLQEVKLRLMDPQACSHYRAFDHNLQLCVGNPRKTKSSFKGDSGGPLLCAGVAQGIASYGRTDAKPPRVFTRISHYRPWINQILQAN
5 | 169 | chymase C22S/P38Q/K40V/F41R/V138I/F173L/D175R/A190S/V213A/S218I/A226R (enzyme) IIGGTESKPHSRPYMAYLEIVTSNGQSVRCGGFLIRRNFVLTAAHCAGRSITVTLGAHNITEEEDTWQKLEVIKQFRHPKYNTSTLHHDIMLLKLKEKASLTLAVGTLPFPSQFNFVPPGRMCRIAGWGRTGVLKPGSDTLQEVKLRLMDPQACSHLRRFDHNLQLCVGNPRKTKSSFKGDSGGPLLCAGVAQGIASYGRIDAKPPRVFTRISHYRPWINQILQAN
6 | 448 | chymase C22S/P38Q/K40M/F41K/L99Y/V138I/F173M/D175Y/A190S/V213A/S218V/A226R (enzyme) IIGGTESKPHSRPYMAYLEIVTSNGQSMKCGGFLIRRNFVLTAAHCAGRSITVTLGAHNITEEEDTWQKLEVIKQFRHPKYNTSTYHHDIMLLKLKEKASLTLAVGTLPFPSQFNFVPPGRMCRIAGWGRTGVLKPGSDTLQEVKLRLMDPQACSHMRYFDHNLQLCVGNPRKTKSSFKGDSGGPLLCAGVAQGIASYGRVDAKPPRVFTRISHYRPWINQILQAN
7 | 449 | chymase C22S/P38Q/K40M/F41R/L99N/V138I/D175N/A190S/V213A/S218T/A226R (enzyme) IIGGTESKPHSRPYMAYLEIVTSNGQSMRCGGFLIRRNFVLTAAHCAGRSITVTLGAHNITEEEDTWQKLEVIKQFRHPKYNTSTNHHDIMLLKLKEKASLTLAVGTLPFPSQFNFVPPGRMCRIAGWGRTGVLKPGSDTLQEVKLRLMDPQACSHFRNFDHNLQLCVGNPRKTKSSFKGDSGGPLLCAGVAQGIASYGRTDAKPPRVFTRISHYRPWINQILQAN
8 | 157 | chymase C22S/P38Q/K40M/F41R/L99Q/V138I/F173Y/D175N/A190S/V213A/S218V/A226R (enzyme) IIGGTESKPHSRPYMAYLEIVTSNGQSMRCGGFLIRRNFVLTAAHCAGRSITVTLGAHNITEEEDTWQKLEVIKQFRHPKYNTSTQHHDIMLLKLKEKASLTLAVGTLPFPSQFNFVPPGRMCRIAGWGRTGVLKPGSDTLQEVKLRLMDPQACSHYRNFDHNLQLCVGNPRKTKSSFKGDSGGPLLCAGVAQGIASYGRVDAKPPRVFTRISHYRPWINQILQAN
9 | 814 | chymase C22S/P38Q/K40M/F41R/L99Y/V138I/F173L/D175S/A190S/V213A/S218V/A226R (enzyme) IIGGTESKPHSRPYMAYLEIVTSNGQSMRCGGFLIRRNFVLTAAHCAGRSITVTLGAHNITEEEDTWQKLEVIKQFRHPKYNTSTYHHDIMLLKLKEKASLTLAVGTLPFPSQFNFVPPGRMCRIAGWGRTGVLKPGSDTLQEVKLRLMDPQACSHLRSFDHNLQLCVGNPRKTKSSFKGDSGGPLLCAGVAQGIASYGRVDAKPPRVFTRISHYRPWINQILQAN

Continued, binder first:

Row | Binder | fB Cleavage EC50 [nM]
10 | chymase C22S/P38Q/K40A/F41R/V138I/D175R/A190S/V213A/S218T/A226R (enzyme) IIGGTESKPHSRPYMAYLEIVTSNGQSARCGGFLIRRNFVLTAAHCAGRSITVTLGAHNITEEEDTWQKLEVIKQFRHPKYNTSTLHHDIMLLKLKEKASLTLAVGTLPFPSQFNFVPPGRMCRIAGWGRTGVLKPGSDTLQEVKLRLMDPQACSHFRRFDHNLQLCVGNPRKTKSSFKGDSGGPLLCAGVAQGIASYGRTDAKPPRVFTRISHYRPWINQILQAN | 262
11 | chymase C22S/P38Q/K40A/F41R/L99H/V138I/F173Y/A190S/V213A/S218V/A226R (enzyme) IIGGTESKPHSRPYMAYLEIVTSNGQSARCGGFLIRRNFVLTAAHCAGRSITVTLGAHNITEEEDTWQKLEVIKQFRHPKYNTSTHHHDIMLLKLKEKASLTLAVGTLPFPSQFNFVPPGRMCRIAGWGRTGVLKPGSDTLQEVKLRLMDPQACSHYRDFDHNLQLCVGNPRKTKSSFKGDSGGPLLCAGVAQGIASYGRVDAKPPRVFTRISHYRPWINQILQAN | 406
12 | chymase C22S/P38Q/K40L/F41R/V138I/D175N/A190S/V213A/S218V/A226R (enzyme) IIGGTESKPHSRPYMAYLEIVTSNGQSLRCGGFLIRRNFVLTAAHCAGRSITVTLGAHNITEEEDTWQKLEVIKQFRHPKYNTSTLHHDIMLLKLKEKASLTLAVGTLPFPSQFNFVPPGRMCRIAGWGRTGVLKPGSDTLQEVKLRLMDPQACSHFRNFDHNLQLCVGNPRKTKSSFKGDSGGPLLCAGVAQGIASYGRVDAKPPRVFTRISHYRPWINQILQAN | 114
13 | chymase C22S/P38Q/K40L/F41R/L99Q/V138I/F173Y/D175N/A190S/V213A/S218V/A226R (enzyme) IIGGTESKPHSRPYMAYLEIVTSNGQSLRCGGFLIRRNFVLTAAHCAGRSITVTLGAHNITEEEDTWQKLEVIKQFRHPKYNTSTQHHDIMLLKLKEKASLTLAVGTLPFPSQFNFVPPGRMCRIAGWGRTGVLKPGSDTLQEVKLRLMDPQACSHYRNFDHNLQLCVGNPRKTKSSFKGDSGGPLLCAGVAQGIASYGRVDAKPPRVFTRISHYRPWINQILQAN | 102
14 | chymase C22S/P38Q/K40A/F41R/V138I/F173S/D175T/A190S/V213A/S218V/A226R (enzyme) IIGGTESKPHSRPYMAYLEIVTSNGQSARCGGFLIRRNFVLTAAHCAGRSITVTLGAHNITEEEDTWQKLEVIKQFRHPKYNTSTLHHDIMLLKLKEKASLTLAVGTLPFPSQFNFVPPGRMCRIAGWGRTGVLKPGSDTLQEVKLRLMDPQACSHSRTFDHNLQLCVGNPRKTKSSFKGDSGGPLLCAGVAQGIASYGRVDAKPPRVFTRISHYRPWINQILQAN | 1720
15 | chymase C22S/P38Q/K40L/F41K/L99N/V138I/F173Y/D175S/A190S/V213A/S218I/A226R (enzyme) IIGGTESKPHSRPYMAYLEIVTSNGQSLKCGGFLIRRNFVLTAAHCAGRSITVTLGAHNITEEEDTWQKLEVIKQFRHPKYNTSTNHHDIMLLKLKEKASLTLAVGTLPFPSQFNFVPPGRMCRIAGWGRTGVLKPGSDTLQEVKLRLMDPQACSHYRSFDHNLQLCVGNPRKTKSSFKGDSGGPLLCAGVAQGIASYGRIDAKPPRVFTRISHYRPWINQILQAN | 144
16 | chymase C22S/P38Q/K40M/F41H/L99N/V138I/F173Y/D175S/A190S/V213A/S218T/A226R (enzyme) IIGGTESKPHSRPYMAYLEIVTSNGQSMHCGGFLIRRNFVLTAAHCAGRSITVTLGAHNITEEEDTWQKLEVIKQFRHPKYNTSTNHHDIMLLKLKEKASLTLAVGTLPFPSQFNFVPPGRMCRIAGWGRTGVLKPGSDTLQEVKLRLMDPQACSHYRSFDHNLQLCVGNPRKTKSSFKGDSGGPLLCAGVAQGIASYGRTDAKPPRVFTRISHYRPWINQILQAN | 561
17 | chymase C22S/P38Q/K40M/F41H/V138I/F173Y/D175R/A190S/V213A/S218V/A226R (enzyme) IIGGTESKPHSRPYMAYLEIVTSNGQSMHCGGFLIRRNFVLTAAHCAGRSITVTLGAHNITEEEDTWQKLEVIKQFRHPKYNTSTLHHDIMLLKLKEKASLTLAVGTLPFPSQFNFVPPGRMCRIAGWGRTGVLKPGSDTLQEVKLRLMDPQACSHYRRFDHNLQLCVGNPRKTKSSFKGDSGGPLLCAGVAQGIASYGRVDAKPPRVFTRISHYRPWINQILQAN | 47.6
18 | chymase C22S/P38Q/K40L/F41R/L99N/V138I/F173Y/D175T/A190S/V213A/S218V/A226R (enzyme) IIGGTESKPHSRPYMAYLEIVTSNGQSLRCGGFLIRRNFVLTAAHCAGRSITVTLGAHNITEEEDTWQKLEVIKQFRHPKYNTSTNHHDIMLLKLKEKASLTLAVGTLPFPSQFNFVPPGRMCRIAGWGRTGVLKPGSDTLQEVKLRLMDPQACSHYRTFDHNLQLCVGNPRKTKSSFKGDSGGPLLCAGVAQGIASYGRVDAKPPRVFTRISHYRPWINQILQAN | 57.6
19 | chymase C22S/P38Q/K40A/F41R/L99H/V138I/D175R/A190S/V213A/S218L/A226R (enzyme) IIGGTESKPHSRPYMAYLEIVTSNGQSARCGGFLIRRNFVLTAAHCAGRSITVTLGAHNITEEEDTWQKLEVIKQFRHPKYNTSTHHHDIMLLKLKEKASLTLAVGTLPFPSQFNFVPPGRMCRIAGWGRTGVLKPGSDTLQEVKLRLMDPQACSHFRRFDHNLQLCVGNPRKTKSSFKGDSGGPLLCAGVAQGIASYGRLDAKPPRVFTRISHYRPWINQILQAN | 191
20 | chymase C22S/P38Q/K40L/F41R/V138I/F173M/D175N/A190S/V213A/S218L/A226R (enzyme) IIGGTESKPHSRPYMAYLEIVTSNGQSLRCGGFLIRRNFVLTAAHCAGRSITVTLGAHNITEEEDTWQKLEVIKQFRHPKYNTSTLHHDIMLLKLKEKASLTLAVGTLPFPSQFNFVPPGRMCRIAGWGRTGVLKPGSDTLQEVKLRLMDPQACSHMRNFDHNLQLCVGNPRKTKSSFKGDSGGPLLCAGVAQGIASYGRLDAKPPRVFTRISHYRPWINQILQAN | 456
21 | chymase C22S/P38Q/K40L/F41R/V138I/F173L/D175H/A190S/V213A/S218V/A226R (enzyme) IIGGTESKPHSRPYMAYLEIVTSNGQSLRCGGFLIRRNFVLTAAHCAGRSITVTLGAHNITEEEDTWQKLEVIKQFRHPKYNTSTLHHDIMLLKLKEKASLTLAVGTLPFPSQFNFVPPGRMCRIAGWGRTGVLKPGSDTLQEVKLRLMDPQACSHLRHFDHNLQLCVGNPRKTKSSFKGDSGGPLLCAGVAQGIASYGRVDAKPPRVFTRISHYRPWINQILQAN | 314
22 | chymase C22S/P38Q/K40A/F41R/L99Y/V138I/F173L/D175R/A190S/V213A/S218L/A226R (enzyme) IIGGTESKPHSRPYMAYLEIVTSNGQSARCGGFLIRRNFVLTAAHCAGRSITVTLGAHNITEEEDTWQKLEVIKQFRHPKYNTSTYHHDIMLLKLKEKASLTLAVGTLPFPSQFNFVPPGRMCRIAGWGRTGVLKPGSDTLQEVKLRLMDPQACSHLRRFDHNLQLCVGNPRKTKSSFKGDSGGPLLCAGVAQGIASYGRLDAKPPRVFTRISHYRPWINQILQAN | 511
